In article PMC10112802 one finds ratio to parent data, which are given here for four variants.

B1: KSHV viral interferon regulatory factor 1, wild type, Flag-tagged (vIRF1-WT-Flag) [modified: lysine propionylation at Lys406 and Lys442 and lysine acetylation, as found on vIRF1 … (parent)
chain 1: MDPGQRPNPFGAPGAIPKKPCLSQGSPGTSGSGAPCDEPSRSESPGEGPSGTGGSAAAGDITRQAVVAAITEWSRTRQLRISTGASEGKASIKDWIVCQVNSGKFPGVEWEDEERTRFRIPVTPLADPCFEWRRDGELGVVYIRERGNMPVDASFKGTRGRRRMLAALRRTRGLQEIGKGISQDGHHFLVFRVRKPEEEQCVECGVVAGAVHDFNNMARLLQEGFFSPGQCLPGEIVTPVPSCTTAEGQEAVIDWGRLFIRMYYNGEQVHELLTTSQSGCRISSALRRDPAVHYCAVGSPGQVWLPNVPNLACEIAKRELCDTLDACAKGILLTSSCNGIFCVCYHNGPVHFIGNTVPPDSGPLLLPQGKPTRIFNPNTFLVGLANSPLPAPSHVTCPLVKLWLGKPVAVGKLEPHAPSPRDFAARCSNFSDACVVLEIMPKPLWDAMQ
chain 2: MGTPKPRILPWLVSQLDLGQLEGVAWVNKSRTRFRIPWKHGLRQDAQQEDFGIFQAWAEATGAYVPGRDKPDLPTWKRNFRSALNRKEGLRLAEDRSKDPHDPHKIYEFVNSGVGDFSQPDTSPDTNGGGSTSDTQEDILDELLGNMVLAPLPDPGPPSLAVAPEPCPQPLRSPSLDNPTPFPNLGPSENPLKRLLVPGEEWEFEVTAFYRGRQVFQQTISCPEGLRLVGSEVGDRTLPGWPVTLPDPGMSLTDRGVMSYVRHVLSCLGGGLALWRAGQWLWAQRLGHCHTYWAVSEELLPNSGHGPDGEVPKDKEGGVFDLGPFIVDLITFTEGSGRSPRYALWFCVGESWPQDQPWTKRLVMVKVVPTCLRALVEMARVGGASSLENTVDLHISNSHPLSLTSDQYKAYLQDLVEGMDFQGPGES

The variants in the experiment derive from B1. As to the kind of experiment: co-immunoprecipitation (anti-Myc IP, anti-Flag Western blot). The following applies: with Myc-tagged IRF3 (IRF3-Myc); HEK293T cells; parent: 1.
With chain 1 K89R K93R K104R K156R K179R K195R, the ratio to parent stood at 0.7. As to chain 1 K406R, the ratio to parent came to 0.5.

On to chain 1 K317R K329R K370R K401R K406R K412R K442R, for which the ratio to parent is 0.1.

On to chain 1 K442R, for which the ratio to parent was determined as 0.2.
